Source: publication PMC11993637

Target: human hormone-sensitive lipase (HSL), adipocyte isoform (human)
Experiment: cryo-EM structure

Substance: human hormone-sensitive lipase (HSL), adipocyte isoform (enzyme)
- stoichiometry N: 2
